{"source": "paper doi:10.1101/2023.04.25.538313v1", "substrate": "O=c1ccn([C@@H]2O[C@H](CO[P@@](=O)(O)O[P@@](=O)(O)O[C@H]3O[C@H](CO)[C@@H](O)[C@H](O)[C@H]3O)[C@@H](O)[C@H]2O)c(=O)[nH]1", "experiment": "purified protein", "conditions": "His-tagged protein in proteoliposomes", "data": [{"protein": "CSLD3 (Arabidopsis thaliana) (protein) MASNNHFMNSRSNLSTNSDAAEAERHQQPVSNSVTFARRTPSGRYVNYSRDDLDSELGSVDLTGYSVHIPPTPDNQPMDPSISQKVEEQYVSNSLFTGGFNSVTRAHLMEKVIDTETSHPQMAGAKGSSCAVPGCDVKVMSDERGQDLLPCECDFKICRDCFMDAVKTGGMCPGCKEPYRNTDLADFADNNKQQRPMLPPPAGGSKMDRRLSLMKSTKSGLMRSQTGDFDHNRWLFETSGTYGFGNAFWTKDGNFGSDKDGNGHGMGPQDLMSRPWRPLTRKLQIPAAVISPYRLLILIRIVVLALFLMWRIKHKNPDAIWLWGMSVVCELWFALSWLLDQLPKLCPINRATDLNVLKEKFETPTPSNPTGKSDLPGLDMFVSTADPEKEPPLVTSNTILSILAADYPVEKLACYVSDDGGALLTFEAMAEAASFANMWVPFCRKHNIEPRNPDSYFSLKRDPYKNKVKADFVKDRRRVKREYDEFKVRINSLPDSIRRRSDAYHAREEIKAMKLQRQNRDEEIVEPVKIPKATWMADGTHWPGTWINSGPDHSRSDHAGIIQVMLKPPSDEPLHGVSEGFLDLTDVDIRLPLLVYVSREKRPGYDHNKKAGAMNALVRASAIMSNGPFILNLDCDHYIYNSQALREGMCFMMDRGGDRLCYVQFPQRFEGIDPSDRYANHNTVFFDVNMRALDGLMGPVYVGTGCLFRRIALYGFDPPRAKEHHPGFCSCCFSRKKKKSRVPEENRSLRMGGDSDDDEEMNLSLVPKKFGNSTFLIDSIPVAEFQGRPLADHPAVQNGRPPGALTIPRELLDASTVAEAIAVISCWYEDKTEWGSRIGWIYGSVTEDVVTGYRMHNRGWKSVYCVTKRDAFRGTAPINLTDRLHQVLRWATGSVEIFFSRNNAFFASPRMKILQRIAYLNVGIYPFTSFFLIVYCFLPALSLFSGQFIVQTLNVTFLVYLLIISITLCLLALLEIKWSGISLEEWWRNEQFWLIGGTSAHLAAVIQGLLKVVAGIEISFTLTSKSGGEDVDDEFADLYIVKWTSLMIPPITIMMVNLIAIAVGFSRTIYSVIPQWSKLIGGVFFSFWVLAHLYPFAKGLMGRRGRTPTIVYVWSGLVAITISLLWVAINPPAGSTQIGGSFTFP", "values": [{"measurement": "Km", "value": 62, "unit": "µM"}]}]}
